Assay [1] deals with T1, Calmodulin (CaM) (mammalian, UniProt P0DP23 1-149).
T1 construct: also called free CaM; CaM alone
Description: co-expression in E. coli, GST pull-down and anion exchange chromatography.

The target in assay [2] is T1, Calmodulin (CaM). As to the kind of experiment: periplasmic-extract ELISA, 1:100 extract on 0.1 ug coated Ca2+CaM or apoCaM, anti-HA detection; positive above absorbance 2. (In an ELISA, binding on a coated surface is turned into a signal by an enzyme label.)

B1: CTNav1.9T (other)
chain: ENFNTATEESEDPLGEDDFDIFYEVWEKFDPEATQFIKYSALSDFADALPEPLRVAKPNKYQFLVMDLPMVSEDRLHCMDILFAFTARVLGGSDGLDSMKAMMEEKFMEANPLKKLYEPIVTTTKRKEEERGAAIIQKAFRKYMMKVTKGDQGDQNDLENGPHS
notes: range 1605-1768; GST tag cleaved
Turning to B1, the binding result in assay [1] was “no binding”.

B2: CTNav1.9FL (other)
chain: ENFNTATEESEDPLGEDDFDIFYEVWEKFDPEATQFIKYSALSDFADALPEPLRVAKPNKYQFLVMDLPMVSEDRLHCMDILFAFTARVLGGSDGLDSMKAMMEEKFMEANPLKKLYEPIVTTTKRKEEERGAAIIQKAFRKYMMKVTKGDQGDQNDLENGPHSPLQTLCNGDLSSFGVAKGKVHCD
notes: range 1605-1791; GST tag cleaved
Regarding B2, the binding result in assay [1] is reported as “no binding”.

B3: Nb26 (VHH)
VHH: QVQLQESGGGSVQAGGSLRLSCVASGRTFSSYAMAWFRQVPGKEREFVGRISRSGGSTMYADSVKGRFDISRDNAKNTVFLQMSSLKPEDTAVYYCAAKAAVILTGIPDYWGQGTQVTVSS
notes: pHEN4 clone, HA-tagged, periplasmic extract; also called family 4
As for B3, the binding result in assay [2] is recorded as “binds”.

Values taken from US20230406919A1 (Johns Hopkins, published 2023).
